Results: US20160271157A1, “BETA-CATENIN” (UCL BUSINESS PLC, priority 2013, published 2016)

How the values were obtained:
[1] = system: β-catenin translocation to the nucleus; experiment: β-catenin immunocytochemistry and nuclear co-localization analysis, PC3; assay type: cell-based; conditions: for Pearson coefficient of nuclear co-localization of β-catenin / expression of β-catenin (immunofluorescence), visible in the nucleus: PC3 cells; for Pearson coefficient of nuclear co-localization of β-catenin: Wnt 100 ng/ml vs control, p<0.001 Mann Whitney test; for expression of β-catenin (immunofluorescence), visible in the nucleus: Wnt ligand 100 ng/ml vs vehicle
Method: (§1) Immunostaining was performed in two different laboratories, independently with the experimenter blind to the identity of the treatment. Either cells used in FluoroDish, post [Ca^2+]i experiments using dyes (see above) or grown in 8 well chamber glass slides (Lab Tek II, Nunc) were used. For Wnt ligand treatment, the culture medium replaced with PBS (without calcium) at 37° C. The experiments were replicated for Wnt ligand or vehicle control as described for [Ca^2+]i measurements. Briefly, Wnt ligands were added and chamber slides incubated at 37° C. for up to 20 min. Chamber wells were washed 3× with 0.5 ml PBS and cells were fixed with 0.5 ml 4% formalin for 30 min at 4° C. Cells were washed 3× with ice cold PBS and stored in 0.5 ml PBS at 4° C. for immunostaining. In some experiments PC3 cells were treated with thaspsigargin as described above.
For immunostaining cells were washed twice for 5 minutes in TBST (20 mM Tris pH 7.4, 0.9% NaCl, 0.1% Tween 20, Sigma). Cells were then incubated in 20% normal goat serum (NGS)/TBST for 30 min at room temperature, the chambers were drained and cells were incubated with mouse anti-β-catenin (ab22656, Abcam, UK) at 1:500 dilution in NGS/TBST overnight at 4° C. Following two further 5 min washes in TBST sections were incubated in goat anti-mouse peroxidase fab (Abcam, UK) at 1:500 dilution for 30 min at room temperature. Following a further two 5 min washes in TBST cells were incubated with tyramide Cy3 (Perkin Elmer) for 10 min at room temperature. Sections were washed twice for 5 min in TBST before nuclear counterstaining with DAPI. After a final two 5 min washes, the chambers were removed and cover slip placed on slides using Permafluor (Thermo Shandon).
Fluorescence immunocytochemical staining for β-catenin expression in cell lines was imaged using Olympus Fluoview 1000 Confocal Microscope (Olympus KeyMed) mounted on an Olympus IX81 inverted microscope using a 20×0.7 NA or 40×1.0 NA dry objective with a zoom of ×3.4′,6-diamidino-2-phenylindole (DAPI, nuclear counterstain) was excited at 405 nm with an emission of 415-500 nm; Cy3 (β-catenin label) signal was excited at 561 nm with an emission spectrum between 570-670 nm. […] Z-stacks of at least 3 fields per sample were imaged and saved in Olympus FV (OIF or OIB) file format.
(§2) Nuclear co-localization of β-catenin was calculated by importing FV files for untreated, control or treated cells, into colocalization plugin of Fiji software (http://fiji.sc/Fiji) for Cy3 (β-catenin) and DAPI (nuclear) signals. Pearson co-relation of colocalization were tabulated for 25-90 cells (from 2-5 different passages of cells) using ROI analysis. Statistical significance between untreated and treated cells was calculated using Mann Whitney U test.

[2] = system: PC3 prostate cancer cell line; experiment: Live [Ca2+]i imaging (Fluo4/FuraRed ratio) after addition of Wnt ligand; assay type: cell-based; conditions: PC3 cells; for intracellular calcium mobilization ([Ca2+]i release) in response to Wnt ligand: 100 ng/ml Wnt ligand peptide, ratio of Fluo4/Fura Red; for dependence of time constants (dwell time) on Wnt ligand concentration / co-operativity: three concentrations of each Wnt ligand, first-order fit; for rise and fall time of [Ca2+]i release: Wnt peptide 100 ng/ml
Method: The imaging protocol was developed in the inventor's laboratory and has been described in detail, elsewhere (Wang at al., (2010) PLoS ONE 5, e10456). Briefly, 100000-200000 PC3, MCF7, 253J or Cos 7 cells were plated on 35 mm FluoroDish (WPI) and grown for 48 h; calcium indicators Fluo-4 (Invitrogen) and FuraRed (Invitrogen) at 1 ng/ml were added to FluoroDish containing only 1 ml of culture medium and incubated for 15-20 min at 37° C. The culture medium was removed and washed (×2) and replaced with 1 ml PBS. Live cell calcium Imaging was performed on an Olympus FluoView FV 1000 confocal microscope (Olympus KeyMed) equipped with a 20× dry objective (numerical aperture=0.75). Calcium indicators were excited with an argon laser line (488 nm) and emissions recorded in the green channel (500-560 nm) for Fluo-4 and red channel (600-700 nm) for FuraRed after addition of vehicle control (PBS) or Wnt X (30-600 ng/ml). Images were acquired every 1.1 or 2.2 seconds for up to 600-800s; image and data acquisition was performed using FluoView 1000 software (Olympus, UK). Fluorescent intensity was measured and data exported as a tab delimited file for further analysis using a spreadsheet. All imaging experiments were performed in duplicate; intracellular calcium at 100 ng/ml was measured in at least 3-12 different passages (passage numbers 25 to 37) of cell line for each Wnt ligand. Wnt 11 was tested in at least 5 different passages at 3 different concentrations. To test if the Wnt activated calcium release was from [Ca^2+]i stores, in some cases PC3 cells, loaded with calcium dyes, were incubated with 1-5 μM of thapsigargin (Sigma, UK), resuspended in dimethyl sulfoxide (DMSO), for 20 min at 37° C., prior to addition of Wnt ligand and live calcium imaging (as described above).
The experiments were performed using 35 mm, glass bottom, FluoroDish containing 1 ml PBS, at 37° C., to which ligands were added at desired concentration. In a static, non-superfusing assay system there is a lag time before the start of a response, in this case an increase in the intensity of the Fluo4 signal due to the release of free calcium. To measure the diffusion constant under these conditions we used Pontamine Sky Blue (Sigma Aldridge), which fluoresces in the red spectrum with 488 nm excitation, using standard practice for adding ligands; the diffusion constant was measured to be 23.3±2.1 μm·s^−1 (means±S.E.M, n=8). The calcium wave, in response to Wnt ligands, travelled across the FluoroDish.
After image acquisition, regions of interest (ROI) were drawn over individual PC3 cells (up to 25) in a single frame and calcium intensity measurements were made using FluoView 1000 software (Olympus, UK). The measurements were exported as a tab delimited file into a spreadsheet for further analysis and Fluo4/Fura Red ratios were calculated. The waveform, a product of the ratio of Fluo4 and FuraRed over the period of measurement was used to measure the kinetics of the activation of [Ca^2+]i release in PC3 cells, in response to different Wnt ligands. The time constants (rise, dwell and fall times) were calculated by first fitting the Fluo4/FuraRed ratio to a single Gaussian function (Origin Lab Corp., MA); a lower (10%) and upper (90%) amplitude thresholding method was then used to calculate the time constants (s). Statistical significance was calculated using Mann Whitney U test.

[3] = system: β-catenin translocation to the nucleus; experiment: β-catenin immunocytochemistry, 253J; assay type: cell-based, human; conditions: 253J bladder cancer cell line
Method: as §1
For immunostaining cells were washed twice for 5 minutes in TBST (20 mM Tris pH 7.4, 0.9% NaCl, 0.1% Tween 20, Sigma). Cells were then incubated in 20% normal goat serum (NGS)/TBST for 30 min at room temperature, the chambers were drained and cells were incubated with mouse anti-β-catenin (ab22656, Abcam, UK) at 1:500 dilution in NGS/TBST overnight at 4° C. […]
Fluorescence immunocytochemical staining for β-catenin expression in cell lines was imaged using Olympus Fluoview 1000 Confocal Microscope (Olympus KeyMed) mounted on an Olympus IX81 inverted microscope using a 20×0.7 NA or 40×1.0 NA dry objective with a zoom of ×3.4′,6-diamidino-2-phenylindole (DAPI, nuclear counterstain) was excited at 405 nm with an emission of 415-500 nm; Cy3 (β-catenin label) signal was excited at 561 nm with an emission spectrum between 570-670 nm. […]
as §2, with “Pearson co-relation of colocalization were tabulated for 25-90 cells (from 2-5 different passages of cells) using ROI analysis.” left out

Row | Molecule | translocation of β-catenin into the nucleus after inhibition of Wnt induced [Ca2+]i release ([1]; PC3 cells incubated with thapsigargin) | time for thapsigargin-evoked calcium transient to decline to baseline ([2]; thapsigargin 5 μM final concentration) [s] | Pearson coefficient of nuclear co-localization of β-catenin [1] | expression of β-catenin (immunofluorescence), visible in the nucleus [1] | intracellular calcium mobilization ([Ca2+]i release) in response to Wnt ligand [2] | dependence of time constants (dwell time) on Wnt ligand concentration / co-operativity [2] | β-catenin translocation into the nucleus after Wnt treatment [3] | rise and fall time of [Ca2+]i release [2] | K1/2 (half-maximal concentration), Michaelis-Menten kinetics of dwell time of [Ca2+]i release ([2]; estimated from fit of dwell time vs Wnt concentration) [ng/mL]
1 | C/C=C(/C)C(=O)O[C@H]1C(C)=C2[C@H]([C@@H]1OC(=O)CCCCCCC)[C@@](C)(OC(C)=O)C[C@H](OC(=O)CCC)[C@@]1(O)[C@H]2OC(=O)[C@@]1(C)O [thapsigargin, reference compound] | reduced the translocation of β-catenin into the nucleus | ≤ 120 | – | – | – | – | – | – | –
2 | Wnt10B: Recombinant Wnt peptide purchased from R&D systems | – | – | significant increase | visibly increased | induce intracellular calcium mobilization | negative co-operativity | β-catenin translocation into the nucleus | – | –
3 | Wnt5A: Recombinant Wnt peptide purchased from R&D systems (protein, UniProt P41221 62-380, looked up) Protein Wnt-5a: IIGAQPLCSQLAGLSQGQKKLCHLYQDHMQYIGEGAKTGIKECQYQFRHRRWNCSTVDNTSVFGRVMQIGSRETAFTYAVSAAGVVNAMSRACREGELSTCGCSRAARPKDLPRDWLWGGCGDNIDYGYRFAKEFVDARERERIHAKGSYESARILMNLHNNEAGRRTVYNLADVACKCHGVSGSCSLKTCWLQLADFRKVGDALKEKYDSAAAMRLNSRGKLVQVNSRFNSPTTQDLVYIDPSPDYCVRNESTGSLGTQGRLCNKTSEGMDGCELMCCGRGYDQFKTVQTERCHCKFHWCCYVKCKKCTEIVDQFVCK | – | – | significant increase | visibly increased | induce intracellular calcium mobilization | classical Michaelis-Menten kinetics | β-catenin translocation into the nucleus | shortest | 67
4 | Wnt9B: Recombinant Wnt peptide purchased from R&D systems (protein, UniProt O14905 23-357, looked up) Protein Wnt-9b: SYFGLTGREVLTPFPGLGTAAAPAQGGAHLKQCDLLKLSRRQKQLCRREPGLAETLRDAAHLGLLECQFQFRHERWNCSLEGRMGLLKRGFKETAFLYAVSSAALTHTLARACSAGRMERCTCDDSPGLESRQAWQWGVCGDNLKYSTKFLSNFLGSKRGNKDLRARADAHNTHVGIKAVKSGLRTTCKCHGVSGSCAVRTCWKQLSPFRETGQVLKLRYDSAVKVSSATNEALGRLELWAPARQGSLTKGLAPRSGDLVYMEDSPSFCRPSKYSPGTAGRVCSREASCSSLCCGRGYDTQSRLVAFSCHCQVQWCCYVECQQCVQEELVYTCKH | – | – | significant increase | visibly increased | induce intracellular calcium mobilization | negative co-operativity | β-catenin translocation into the nucleus | slowest | –
